CD33/APC+ data for one molecule are collected here from patent US20200223930A1.

The target in this assay is CD33 (UniProt P20138). The experiment in a line: flow cytometry, hybridoma supernatant on EL4-CD33 cells, rat anti-mouse IgG APC. Background: Flow cytometry measures light scatter and fluorescence of single cells or particles in a stream.
Sequence of UniProt P20138 (P20138 18-364 limits assumed): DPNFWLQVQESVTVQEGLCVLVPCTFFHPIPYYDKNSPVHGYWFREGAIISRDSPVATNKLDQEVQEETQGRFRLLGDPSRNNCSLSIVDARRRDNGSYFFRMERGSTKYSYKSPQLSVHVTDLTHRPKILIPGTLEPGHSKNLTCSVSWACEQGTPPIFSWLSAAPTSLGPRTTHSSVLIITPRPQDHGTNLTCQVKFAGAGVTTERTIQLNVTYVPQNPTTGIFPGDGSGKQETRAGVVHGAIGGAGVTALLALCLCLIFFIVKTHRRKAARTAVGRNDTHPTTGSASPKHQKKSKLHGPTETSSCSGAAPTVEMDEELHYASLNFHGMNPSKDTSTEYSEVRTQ

B1: 3F5 (antibody, V domains shown)
VH: EVQLQQSGPELVKPGSSVKISCKASGYTFTDYNMDWVKQSHGKSLEWIGTINPNNGGTSYNQKFKGKATLTVDKSSSTAYMELRSLTSEDSAVYYCARKGYGGNYDYFDYWGQGTTLTVSS
VL: DILLTQSPAILSVSPGERVSFSCRASQSIGTSIHWYQQRTNGSPRLLIKYASESISGIPSRFSGSGSGTDFTLSINSVESEDIADYYCQQSNSWPYTFGGGTKLEIK
Take B1: the CD33/APC+ was 52%.
